Holding throughout (assay): Kinase selectivity panel
Holding throughout (type): biochemical

In one data set the target is GSK3b (Homo sapiens, UniProt P49841). The note with it: read-out: residual activity (%) GSK3b. As for the experimental part:
(§1) The panel of kinases included all 52 kinases available for testing.
(§2) The assay of protein kinases was performed at 30° C. as described previously [Davies et al., Biochem. J. 351 (2000) 95; Murray et al., Biochem. J. 384 (2004) 477].

Another data set deals with MARK3 (Homo sapiens, UniProt P27448). The note with it: read-out: residual activity (%) MARK3. As for the experimental part:
as §1, §2

The target of the next data set is Src (Homo sapiens, UniProt P12931). The note with it: read-out: residual activity (%) Src. As to the method: as §1, §2
Chain of Src (P12931 whole entry, species assumed): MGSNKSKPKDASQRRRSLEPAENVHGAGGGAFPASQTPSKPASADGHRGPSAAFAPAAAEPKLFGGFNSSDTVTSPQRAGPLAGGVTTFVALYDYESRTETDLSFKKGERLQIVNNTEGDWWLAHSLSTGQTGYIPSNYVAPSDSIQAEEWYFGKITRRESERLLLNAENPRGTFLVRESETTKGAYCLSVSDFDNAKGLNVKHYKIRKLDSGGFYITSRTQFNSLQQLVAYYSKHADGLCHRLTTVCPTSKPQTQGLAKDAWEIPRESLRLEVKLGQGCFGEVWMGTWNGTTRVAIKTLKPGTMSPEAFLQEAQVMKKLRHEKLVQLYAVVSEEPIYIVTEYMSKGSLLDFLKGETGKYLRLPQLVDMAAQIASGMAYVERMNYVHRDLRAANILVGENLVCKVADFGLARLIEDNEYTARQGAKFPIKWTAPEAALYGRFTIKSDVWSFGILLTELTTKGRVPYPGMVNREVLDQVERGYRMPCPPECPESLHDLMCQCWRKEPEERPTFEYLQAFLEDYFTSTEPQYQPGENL
The next data set has as its target PIM2 (Homo sapiens, UniProt Q9P1W9). The note with it: read-out: residual activity (%) PIM2. As for the experimental part:
as §1, §2

Another data set concerns the target T1, SGK (Homo sapiens, UniProt O00141).
T1 sequence (O00141 1-431): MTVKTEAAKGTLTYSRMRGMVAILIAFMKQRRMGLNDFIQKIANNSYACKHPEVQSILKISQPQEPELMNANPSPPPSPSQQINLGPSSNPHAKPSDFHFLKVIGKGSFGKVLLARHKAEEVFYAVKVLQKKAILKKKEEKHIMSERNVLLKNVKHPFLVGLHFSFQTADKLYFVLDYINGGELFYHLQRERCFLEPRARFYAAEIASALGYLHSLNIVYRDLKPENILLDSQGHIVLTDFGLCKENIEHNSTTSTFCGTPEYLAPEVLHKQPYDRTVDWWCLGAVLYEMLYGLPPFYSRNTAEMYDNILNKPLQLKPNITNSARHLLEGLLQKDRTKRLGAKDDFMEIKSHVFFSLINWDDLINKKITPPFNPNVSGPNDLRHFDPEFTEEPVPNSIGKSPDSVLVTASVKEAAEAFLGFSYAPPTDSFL
The note with it: read-out: residual activity (%) SGK. As for the experimental part: as §1, §2

The target of a further data set is T2, PRAK (Homo sapiens, UniProt Q8IW41).
T2 sequence (Q8IW41 1-473): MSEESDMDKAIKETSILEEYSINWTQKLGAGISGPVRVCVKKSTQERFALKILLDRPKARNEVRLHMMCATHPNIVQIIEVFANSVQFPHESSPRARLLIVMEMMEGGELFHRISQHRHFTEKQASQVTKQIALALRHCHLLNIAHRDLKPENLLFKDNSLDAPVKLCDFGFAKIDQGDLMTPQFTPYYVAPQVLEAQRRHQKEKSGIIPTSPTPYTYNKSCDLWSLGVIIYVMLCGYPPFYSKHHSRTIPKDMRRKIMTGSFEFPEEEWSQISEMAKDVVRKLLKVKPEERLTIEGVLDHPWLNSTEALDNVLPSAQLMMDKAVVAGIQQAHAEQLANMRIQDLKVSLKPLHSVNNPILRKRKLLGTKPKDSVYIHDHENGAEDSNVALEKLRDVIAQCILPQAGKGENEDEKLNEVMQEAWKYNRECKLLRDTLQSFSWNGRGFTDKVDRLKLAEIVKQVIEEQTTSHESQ
The note with it: read-out: residual activity (%) PRAK. As for the experimental part:
as §1, §2

The target of the next data set is Lck (Homo sapiens, UniProt P06239). The note with it: read-out: residual activity (%) Lck. As for the experimental part:
as §1, §2

For another data set, the target named is PKBb (Homo sapiens, UniProt P31751). The note with it: read-out: residual activity (%) PKBb. As for the experimental part: as §1, §2
Chain of PKBb (P31751 whole entry): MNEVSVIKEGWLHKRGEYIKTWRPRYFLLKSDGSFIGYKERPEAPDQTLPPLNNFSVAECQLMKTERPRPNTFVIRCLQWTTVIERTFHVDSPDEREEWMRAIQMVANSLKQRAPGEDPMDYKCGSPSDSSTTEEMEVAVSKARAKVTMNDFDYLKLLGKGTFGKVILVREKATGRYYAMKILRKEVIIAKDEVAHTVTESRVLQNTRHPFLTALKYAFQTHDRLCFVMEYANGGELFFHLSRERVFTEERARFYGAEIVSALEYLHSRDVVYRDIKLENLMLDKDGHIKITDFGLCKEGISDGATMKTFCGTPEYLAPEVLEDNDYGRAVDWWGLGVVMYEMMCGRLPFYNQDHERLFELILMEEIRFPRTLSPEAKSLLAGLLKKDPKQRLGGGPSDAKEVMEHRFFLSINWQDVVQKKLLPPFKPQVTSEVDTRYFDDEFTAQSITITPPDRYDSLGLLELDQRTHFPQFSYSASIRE
Another data set deals with T3, PKD1 (Homo sapiens, UniProt Q15139).
T3 sequence (Q15139 1-912): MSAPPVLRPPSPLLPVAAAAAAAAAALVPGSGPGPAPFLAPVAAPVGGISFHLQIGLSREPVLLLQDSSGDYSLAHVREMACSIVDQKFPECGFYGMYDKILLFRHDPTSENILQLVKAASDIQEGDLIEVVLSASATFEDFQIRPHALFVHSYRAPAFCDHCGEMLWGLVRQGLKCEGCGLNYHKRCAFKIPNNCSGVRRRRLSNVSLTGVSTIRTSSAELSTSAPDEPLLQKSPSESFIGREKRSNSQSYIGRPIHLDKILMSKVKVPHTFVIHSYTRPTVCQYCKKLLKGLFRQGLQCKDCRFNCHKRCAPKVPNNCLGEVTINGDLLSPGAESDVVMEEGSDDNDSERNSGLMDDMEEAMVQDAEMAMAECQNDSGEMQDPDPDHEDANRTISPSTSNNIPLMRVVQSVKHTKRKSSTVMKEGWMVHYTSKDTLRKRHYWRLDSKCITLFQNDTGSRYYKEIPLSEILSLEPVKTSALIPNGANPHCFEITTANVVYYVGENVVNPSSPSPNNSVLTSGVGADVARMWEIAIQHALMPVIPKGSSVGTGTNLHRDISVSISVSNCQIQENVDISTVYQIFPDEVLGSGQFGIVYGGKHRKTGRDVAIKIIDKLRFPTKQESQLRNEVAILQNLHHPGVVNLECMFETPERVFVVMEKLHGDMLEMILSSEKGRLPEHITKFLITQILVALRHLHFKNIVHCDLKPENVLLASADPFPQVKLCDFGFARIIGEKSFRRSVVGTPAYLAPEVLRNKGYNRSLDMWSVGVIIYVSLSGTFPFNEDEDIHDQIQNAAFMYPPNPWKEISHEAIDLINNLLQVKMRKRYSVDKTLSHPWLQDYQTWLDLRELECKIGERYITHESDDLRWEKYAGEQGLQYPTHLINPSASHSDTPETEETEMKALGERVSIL
The note with it: for remaining activity at 1 µM: read-out: residual activity (%) PKD1. As to the method: as §1, §2

Read-outs that look alike come from different tables or passages of the source.

Chain of MARK3 (P27448 whole entry, species assumed): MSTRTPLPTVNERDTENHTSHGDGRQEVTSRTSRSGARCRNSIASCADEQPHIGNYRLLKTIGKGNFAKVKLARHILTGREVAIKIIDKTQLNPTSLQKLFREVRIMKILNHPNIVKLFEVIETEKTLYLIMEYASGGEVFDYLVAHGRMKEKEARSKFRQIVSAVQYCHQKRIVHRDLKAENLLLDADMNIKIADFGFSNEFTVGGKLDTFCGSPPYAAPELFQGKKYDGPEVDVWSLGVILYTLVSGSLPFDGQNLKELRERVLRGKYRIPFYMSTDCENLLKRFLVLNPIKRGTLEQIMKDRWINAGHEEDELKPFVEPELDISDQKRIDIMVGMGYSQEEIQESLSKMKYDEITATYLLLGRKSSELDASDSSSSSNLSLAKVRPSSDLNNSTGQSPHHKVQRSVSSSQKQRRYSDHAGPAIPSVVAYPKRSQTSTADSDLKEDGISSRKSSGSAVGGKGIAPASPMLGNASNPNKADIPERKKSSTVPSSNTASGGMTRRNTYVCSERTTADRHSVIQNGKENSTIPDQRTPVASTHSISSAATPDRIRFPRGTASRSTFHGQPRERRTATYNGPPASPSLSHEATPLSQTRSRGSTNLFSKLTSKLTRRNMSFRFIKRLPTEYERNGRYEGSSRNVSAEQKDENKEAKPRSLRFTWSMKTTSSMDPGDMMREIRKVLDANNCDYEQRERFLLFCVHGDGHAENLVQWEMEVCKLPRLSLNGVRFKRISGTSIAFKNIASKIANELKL
Chain of GSK3b (P49841 whole entry, species assumed): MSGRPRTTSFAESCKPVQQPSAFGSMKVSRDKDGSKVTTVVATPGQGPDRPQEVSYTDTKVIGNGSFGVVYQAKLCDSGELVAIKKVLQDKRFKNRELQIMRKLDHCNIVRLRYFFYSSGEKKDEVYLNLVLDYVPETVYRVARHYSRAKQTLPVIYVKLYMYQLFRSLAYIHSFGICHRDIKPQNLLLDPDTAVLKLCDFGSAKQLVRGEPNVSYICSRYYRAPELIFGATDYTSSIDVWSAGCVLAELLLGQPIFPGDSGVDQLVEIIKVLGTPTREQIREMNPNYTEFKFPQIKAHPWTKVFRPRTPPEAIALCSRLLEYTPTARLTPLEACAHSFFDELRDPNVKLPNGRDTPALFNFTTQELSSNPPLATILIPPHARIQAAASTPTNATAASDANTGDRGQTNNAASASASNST
Chain of PIM2 (Q9P1W9 whole entry, species assumed): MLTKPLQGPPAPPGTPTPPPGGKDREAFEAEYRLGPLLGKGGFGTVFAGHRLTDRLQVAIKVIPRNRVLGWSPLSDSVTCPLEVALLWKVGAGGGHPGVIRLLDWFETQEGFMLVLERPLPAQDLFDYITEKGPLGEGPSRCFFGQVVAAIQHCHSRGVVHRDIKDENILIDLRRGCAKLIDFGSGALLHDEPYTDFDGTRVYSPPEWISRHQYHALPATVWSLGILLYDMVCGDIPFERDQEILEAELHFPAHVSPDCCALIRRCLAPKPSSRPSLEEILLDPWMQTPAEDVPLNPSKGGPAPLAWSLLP
Chain of Lck (P06239 whole entry, species assumed): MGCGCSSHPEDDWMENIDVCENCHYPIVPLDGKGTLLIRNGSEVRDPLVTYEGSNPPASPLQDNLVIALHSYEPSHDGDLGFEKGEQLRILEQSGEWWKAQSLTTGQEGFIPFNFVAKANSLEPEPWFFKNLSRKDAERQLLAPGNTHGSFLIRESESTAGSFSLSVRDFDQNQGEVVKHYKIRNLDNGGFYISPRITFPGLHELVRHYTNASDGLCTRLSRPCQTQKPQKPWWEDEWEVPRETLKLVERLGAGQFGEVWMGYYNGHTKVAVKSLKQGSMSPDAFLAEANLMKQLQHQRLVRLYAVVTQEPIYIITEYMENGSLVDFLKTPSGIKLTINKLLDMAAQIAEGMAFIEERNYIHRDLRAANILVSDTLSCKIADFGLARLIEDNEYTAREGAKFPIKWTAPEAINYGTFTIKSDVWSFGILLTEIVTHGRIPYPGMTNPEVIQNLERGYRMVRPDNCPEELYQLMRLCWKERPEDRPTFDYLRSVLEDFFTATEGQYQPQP

`N=C(N)NCCC[C@@H](NC(=O)[C@@H](CCCNC(=N)N)NC(=O)[C@@H](CCCNC(=N)N)NC(=O)[C@@H](CCCNC(=N)N)NC(=O)[C@@H](CCCNC(=N)N)NC(=O)[C@@H](CCCNC(=N)N)NC(=O)CCCCCNCCNS(=O)(=O)c1cccc2cnccc12)C(N)=O` [Compound 26, H9-Hex(D-Arg)6-NH2]: the remaining activity at 1 µM is 94% with GSK3b (inhibitor 1 μM, ATP 5 μM); 53% in the data set with MARK3 (inhibitor 1 μM, ATP 5 μM); 88% in the data set with Src (inhibitor 1 μM, ATP 50 μM); under 10% in the data set with PIM2 (inhibitor 1 μM, ATP 5 μM); 1% with SGK (inhibitor 1 μM, ATP 20 μM); 97% in the data set with PRAK (inhibitor 1 μM, ATP 20 μM). Moreover, the remaining activity at 1 µM with Lck (inhibitor 1 μM, ATP 50 μM) is 88%; with PKBb (inhibitor 1 μM, ATP 50 μM) it was 3%; with PKD1 (inhibitor 1 μM, ATP 50 μM), under 10%. Besides, the “residual activity (%) PKD1” value in the data set with PKD1 (inhibitor 1 μM, ATP 50 μM) is 9 (±1) %.

As to `N=C(N)NCCC[C@@H](NC(=O)[C@@H](CCCNC(=N)N)NC(=O)[C@@H](CCCNC(=N)N)NC(=O)[C@@H](CCCNC(=N)N)NC(=O)[C@@H](CCCNC(=N)N)NC(=O)[C@@H](CCCNC(=N)N)NC(=O)CCCCCNC(=O)[C@H]1O[C@@H](n2cnc3c(N)ncnc32)[C@H](O)[C@@H]1O)C(N)=O` [Compound 5, AdcAhx(D-Arg)6-NH2], the remaining activity at 1 µM is 56% in the data set with GSK3b; 40% in the data set with MARK3; 84% in the data set with Src; 38% in the data set with PIM2; 16% with SGK; 89% with PRAK. Also, the remaining activity at 1 µM was found to be 70% with Lck, 3% with PKBb and 54% with PKD1.

These data come from US8158376B2, “Bisubstrate fluorescent probe binding to protein kinases” (University of Tartu, priority 2006, dated 2012).
